Literature values as cited in PMC12020373.

What was measured:
Cys46 [1] = biological target: Cys46 (UniProt position 47, TERPGCLDFKG)
Cys78 = Cys78 (UniProt position 79, YIDKVCELKKK)
Cys65 = Cys65 (UniProt position 66, ELKGTCKEDAM)
His31 = His31 (UniProt position 31, TIGIGHLLTKS)
Cys145 = Cys145 (UniProt position 145, PILIPCHRVVC)
Cys32 [2] = biological target: Cys32 (UniProt position 33, FWAEWCGPCKM)
Cys36 = Cys36 (UniProt position 37, YKQATCGDINT)
Cys124 = Cys124 (UniProt position 125, HPGDFCADAQG)
Cys46 [3] = biological target: Cys46 (UniProt position 47, DFTFVCPTELG)
Cys17 = Cys17 (UniProt position 18, VKHLKCKPADE)
His113 [4] = biological target: His113 (UniProt position 114, SEAIIHVLHSR)
His116 [5] = biological target: His116 (UniProt position 117, IIHVLHSRHPG)
His12 = His12 (UniProt position 13, WQLVLHVWAKV)
His36 [6] = biological target: His36 (UniProt position 37, RLFKSHPETLE)
His48 = His48 (UniProt position 49, FDRFKHLKTEA)
His81 = His81 (UniProt position 82, LKKKGHHEAEL)
Cys25 [7] = biological target: Cys25 (UniProt position 157, GSCGSCWAFSA)
Cys283 [8] = biological target: Cys283 (UniProt position 283, GYVLTCPANLG)
Cys25 [9] = biological target: Cys25 (UniProt position 158, GSCGSCWAFSA)
Cys403 = Cys403 (UniProt position 403, RPVIHCRAGVG)
His46 = His46 (UniProt position 128, TPETKHPKKGV)
His8 = His8 (UniProt position 90, STKKLHKEPAT)
Cys215 = Cys215 (UniProt position 215, PVVVHCSAGIG)
His113 [10] = biological target: His113 (UniProt position 114, SDAIIHVLHSK)
His116 [11] = biological target: His116 (UniProt position 117, IIHVLHSKHPG)
His119 = His119 (UniProt position 120, VLHSKHPGDFG)
His36 [12] = biological target: His36 (UniProt position 37, RLFTGHPETLE)
Cys106 = Cys106 (UniProt position 106, LIAAICAGPTA)
Cys40 = Cys40 (UniProt position 40, FSASWCPPCRG)
Cys32 [13] = biological target: Cys32 (UniProt position 32, FSATWCGPCKM)
His43 = His43 (UniProt position 43, IKPFFHSLSEK)
Cys29 = Cys29 (UniProt position 108, GSCGSCWAFGA)
Cys126 = Cys126 (UniProt position 127, GDFGACAQGAM)
His124 = His124 (UniProt position 124, EWVKGHAGHPE)
His127 = His127 (UniProt position 127, KGHAGHPENER)
His62 = His62 (UniProt position 62, EALKEHCEVIL)
His83 = His83 (UniProt position 83, ITQWIHNWKKR)
Cys88 = Cys88 (UniProt position 88, ADGSICLDILQ)
Cys283 [14] = biological target: Cys283 (UniProt position 283, GYVLTCPSNLG)
Cys125 = Cys125 (UniProt position 126, PGDFGCDAQGA)

In the case of “acyl-CoA-binding protein (PDB 1NTI) M46C (Bos taurus (inferred); M46C)”, the pKa (Cys46 [1]) is listed as 8.2.

For “ubiquitin-conjugating enzyme Ubc13 (PDB 1JBB) (Saccharomyces cerevisiae (inferred))”, the pKa (Cys85) is listed as 11.1.

For “acyl-CoA-binding protein (PDB 1NTI) E78C (Bos taurus (inferred); E78C)”, the pKa (Cys78) is given as 9.6.

For “acyl-CoA-binding protein (PDB 1NTI) S65C (Bos taurus (inferred); S65C)”, the pKa (Cys65) is given as 9.0.

In the case of “T4 lysozyme (PDB 2LZM) (Enterobacteria phage T4 (inferred))”, the pKa (His31) is given as 9.1.

In the case of “O6-alkylguanine-DNA alkyltransferase (AGT/MGMT) (Homo sapiens)”, the pKa (Cys145) is listed as 5.3.

In the case of thioredoxin (Escherichia coli), the pKa (Cys32 [2]) is given as 7.3.

In the case of “acyl-CoA-binding protein (PDB 1NTI) V36C (Bos taurus (inferred); V36C)”, the pKa (Cys36) is listed as 9.5.

For “myoglobin G124C (Physeter macrocephalus (sperm whale); G124C)”, the pKa (Cys124) is listed as 6.5.

In the case of “methionine sulfoxide reductase A (MsrA) (Mus musculus)”, the pKa (Cys51) is listed as 7.2.

In the case of “methionine sulfoxide reductase A E115Q (Mus musculus; E115Q)”, the pKa (Cys51) is listed as 8.2.

For “alkyl hydroperoxide reductase C (peroxiredoxin AhpC) (Salmonella enterica serovar Typhimurium (inferred; article says only 'bacterial'))”, the pKa (Cys46 [3]) is given as 5.9.

For “acyl-CoA-binding protein (PDB 1NTI) T17C (Bos taurus (inferred); T17C)”, the pKa (Cys17) is given as 9.8.

For “myoglobin (PDB 1A6K) (Physeter macrocephalus (sperm whale; inferred))”, the pKa (His113 [4]) is listed as 5.51, the pKa (His116 [5]) is listed as 6.70 and the pKa (His12) is listed as 6.49. The pKa (His36 [6]) was 7.98, the pKa (His48) was 5.55 and the pKa (His81) was 6.88.

For “caricain (papaya protease omega) (Carica papaya)”, the pKa (Cys25 [7]) is given as 2.9.

For “muscle creatine kinase S285A (Homo sapiens; S285A)”, the pKa (Cys283 [8]) is listed as 6.7.

For papain (Carica papaya), the pKa (Cys25 [9]) is given as 3.3.

In the case of “protein tyrosine phosphatase YopH (Yersinia (species not stated; Y. enterocolitica for 1YPT to my knowledge))”, the pKa (Cys403) is listed as 4.7.

In the case of “staphylococcal nuclease (PDB 1EY0) (Staphylococcus aureus (inferred))”, the pKa (His46) is listed as 5.86 and the pKa (His8) is listed as 6.52.

In the case of “ubiquitin-conjugating enzyme UbcH10 (Homo sapiens)”, the pKa (Cys85) is listed as 10.9.

For “protein-tyrosine phosphatase 1B / PTP1 (Homo sapiens for the listed structure; the pKa source title says only 'mammalian' PTP1)”, the pKa (Cys215) is given as 5.6.

For “myoglobin (PDB 1DWR) (Equus caballus (horse; inferred))”, the pKa (His113 [10]) is listed as 5.87, the pKa (His116 [11]) is listed as 6.79 and the pKa (His119) is listed as 6.56. For the same substance, the pKa (His36 [12]) was 7.8 and the pKa (His81) was 6.94.

In the case of DJ-1 (PARK7) (Homo sapiens), the pKa (Cys106) is listed as 5.4.

For “tryparedoxin (Trypanosoma brucei (inferred from PDB 1O73))”, the pKa (Cys40) is listed as 7.2.

For thioredoxin (Homo sapiens), the pKa (Cys32 [13]) is listed as 6.3 and the pKa (His43) is listed as 5.5.

In the case of alpha1-antitrypsin (Homo sapiens), the pKa (Cys210) is listed as 6.9.

In the case of cathepsin B (Rattus norvegicus), the pKa (Cys29) is listed as 3.6.

For “thiol-disulfide oxidoreductase ResA (Bacillus subtilis (inferred))”, the pKa (Cys35) is listed as 8.8.

For “myoglobin D126C (Physeter macrocephalus (sperm whale); D126C)”, the pKa (Cys126) is given as 8.1.

In the case of ribonuclease HI (Escherichia coli), the pKa (His124) is listed as 7.1, the pKa (His127) is listed as 7.9 and the pKa (His62) is listed as 7.0. For the same substance, the pKa (His83) was 5.5.

For “thiol:disulfide interchange protein DsbA (Escherichia coli (inferred))”, the pKa (Cys28) is listed as 3.3.

For “ubiquitin-conjugating enzyme E2 (PDB 1JAS; HsUbc2b) (Homo sapiens (inferred))”, the pKa (Cys88) is given as 10.2.

In the case of muscle creatine kinase (Homo sapiens), the pKa (Cys283 [14]) is listed as 5.6.

For “myoglobin A125C (Physeter macrocephalus (sperm whale); A125C)”, the pKa (Cys125) is listed as 8.4.
